Experimental data as given in patent publication US20060211610A1 (IPSEN PHARMA S A S, published 2006).
Non-standard residues stand in square brackets, D forms with d. Phe(3,4,5-F3) = N[C@@H](Cc1cc(F)c(F)c(F)c1)C(=O)O; Ac6c = NC1(C(=O)O)CCCCC1

T1: Y2 receptor (human, UniProt P49146 1-381)
T1 construct: whole, on cells; Assayed as membrane homogenates of SK-N-BE2 cells, not intact cells
T1 sequence (looked up): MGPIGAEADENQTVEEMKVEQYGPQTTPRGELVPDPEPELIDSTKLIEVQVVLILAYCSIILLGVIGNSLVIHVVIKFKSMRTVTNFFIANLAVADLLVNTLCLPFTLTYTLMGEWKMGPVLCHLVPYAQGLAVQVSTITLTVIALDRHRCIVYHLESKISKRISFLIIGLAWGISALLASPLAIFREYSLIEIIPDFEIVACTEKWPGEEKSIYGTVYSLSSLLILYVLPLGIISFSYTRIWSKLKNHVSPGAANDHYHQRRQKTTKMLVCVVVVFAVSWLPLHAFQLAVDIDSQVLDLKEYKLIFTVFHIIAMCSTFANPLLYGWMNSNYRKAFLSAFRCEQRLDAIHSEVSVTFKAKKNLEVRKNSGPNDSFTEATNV

T2: Y1 receptor (human, UniProt P25929 1-384)
T2 construct: whole, on cells; Assayed as membrane homogenates of SK-N-MC cells, not intact cells; also called NPY Y1
T2 sequence (looked up): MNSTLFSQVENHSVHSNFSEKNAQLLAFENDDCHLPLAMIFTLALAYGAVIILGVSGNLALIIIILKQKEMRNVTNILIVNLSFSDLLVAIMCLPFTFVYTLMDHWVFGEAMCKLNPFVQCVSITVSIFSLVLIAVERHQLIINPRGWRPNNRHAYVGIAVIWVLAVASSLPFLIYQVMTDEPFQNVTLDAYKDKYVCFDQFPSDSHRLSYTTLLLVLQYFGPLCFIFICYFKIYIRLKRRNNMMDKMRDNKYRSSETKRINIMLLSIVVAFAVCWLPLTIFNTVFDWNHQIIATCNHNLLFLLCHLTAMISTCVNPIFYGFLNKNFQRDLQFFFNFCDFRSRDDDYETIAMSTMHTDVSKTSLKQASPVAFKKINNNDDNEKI

T3: Y1 receptor (human), P25929
T3 chain: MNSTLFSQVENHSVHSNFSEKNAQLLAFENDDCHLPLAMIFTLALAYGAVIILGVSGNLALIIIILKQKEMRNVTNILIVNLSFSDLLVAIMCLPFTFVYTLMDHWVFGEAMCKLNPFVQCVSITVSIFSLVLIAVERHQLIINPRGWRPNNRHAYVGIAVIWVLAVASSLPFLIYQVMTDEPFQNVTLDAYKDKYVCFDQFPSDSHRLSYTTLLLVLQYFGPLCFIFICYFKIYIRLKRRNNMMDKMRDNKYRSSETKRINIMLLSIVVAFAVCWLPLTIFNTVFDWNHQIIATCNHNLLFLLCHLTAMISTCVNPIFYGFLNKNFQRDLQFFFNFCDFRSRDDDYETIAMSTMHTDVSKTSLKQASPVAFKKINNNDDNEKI

T4: Y2 receptor (human), P49146
T4 chain: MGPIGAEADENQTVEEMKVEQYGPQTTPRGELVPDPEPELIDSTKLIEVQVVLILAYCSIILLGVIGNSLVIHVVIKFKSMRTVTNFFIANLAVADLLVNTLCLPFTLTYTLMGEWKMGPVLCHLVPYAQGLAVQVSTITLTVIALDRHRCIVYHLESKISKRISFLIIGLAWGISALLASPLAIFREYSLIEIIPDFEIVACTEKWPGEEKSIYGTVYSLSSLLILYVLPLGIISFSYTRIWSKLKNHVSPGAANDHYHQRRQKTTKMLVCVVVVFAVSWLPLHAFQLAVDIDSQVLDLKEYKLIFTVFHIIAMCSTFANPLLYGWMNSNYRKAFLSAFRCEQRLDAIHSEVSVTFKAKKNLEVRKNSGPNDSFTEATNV


Columns and labels:
Y2 receptor = molecular target: T1, Y2 receptor; assay: radioligand competition against [125I]PYY(3-36), SK-N-BE2 membranes, Cheng-Prusoff
Procedure: (§1) The final pellets were resuspended in approximately 20 ml of 50 mM Tris-HCl containing 5.0 mM MgCl₂, 0.1 mg/ml bacitracin, and 0.1% BSA (Buffer B), and held on ice for the receptor binding assay.
(§2) For assay, aliquots (0.4 ml) of the foregoing suspensions were incubated with 0.05 ml of 0.05 nM [¹²⁵I-Leu³¹, Pro³⁴]PYY (Y1 receptor) or [¹²⁵I]PYY(3-36) (Y2 receptor), (each ˜2200 Ci/mmol, New England Nuclear) in Buffer B, with or without 0.05 ml a solution (ranging from 0.01 nM -1000 nM) of an unlabeled competing peptide. After a 120 min incubation (25° C.), the bound radioligand was separated from the free by rapid filtration through GF/C filters, previously soaked in 0.3% polyethyleneimine. […] Inhibition constants (K₁,) were calculated using the well-known Cheng-Prusoff equation.

Y1 receptor = molecular target: T2, Y1 receptor; assay: radioligand competition against [125I-Leu31,Pro34]PYY, SK-N-MC membranes, Cheng-Prusoff
Procedure: as §1, §2

[1] = molecular target: T3, Y1 receptor (human), P25929
[2] = molecular target: T4, Y2 receptor (human), P49146

Binder	Ki (Y2 receptor)	Ki (Y1 receptor)	Ki [1]	Ki [2]
Ac-LRHYLNL[Ac6c]TRQRY-NH2 (SMILES CC(=O)N[C@@H](CC(C)C)C(=O)N[C@@H](CCCNC(=N)N)C(=O)N[C@@H](Cc1c[nH]cn1)C(=O)N[C@@H](Cc1ccc(O)cc1)C(=O)N[C@@H](CC(C)C)C(=O)N[C@@H](CC(N)=O)C(=O)N[C@@H](CC(C)C)C(=O)NC1(C(=O)N[C@H](C(=O)N[C@@H](CCCNC(=N)N)C(=O)N[C@@H](CCC(N)=O)C(=O)N[C@@H](CCCNC(=N)N)C(=O)N[C@@H](Cc2ccc(O)cc2)C(N)=O)[C@@H](C)O)CCCCC1, Synthetic analog of human PYY(24-36)) [Ac-[A6C^31]hPYY(24-36)NH2]	< 1000 nM	< 2000 nM	–	–
Ac-LRHY[Ac6c]NLLTRQRY-NH2 (SMILES CC(=O)N[C@@H](CC(C)C)C(=O)N[C@@H](CCCNC(=N)N)C(=O)N[C@@H](Cc1c[nH]cn1)C(=O)N[C@@H](Cc1ccc(O)cc1)C(=O)NC1(C(=O)N[C@@H](CC(N)=O)C(=O)N[C@@H](CC(C)C)C(=O)N[C@@H](CC(C)C)C(=O)N[C@H](C(=O)N[C@@H](CCCNC(=N)N)C(=O)N[C@@H](CCC(N)=O)C(=O)N[C@@H](CCCNC(=N)N)C(=O)N[C@@H](Cc2ccc(O)cc2)C(N)=O)[C@@H](C)O)CCCCC1, Also carries Leu at 31 (residue 8 of the peptide), already in the entry) [Ac-[A6C^28, Leu^31]hPYY(24-36)NH2]	< 1000 nM	< 2000 nM	–	–
Ac-ASLRH[Phe(3,4,5-F3)]LNLVTRQRY-NH2 (SMILES CC(=O)N[C@@H](C)C(=O)N[C@@H](CO)C(=O)N[C@@H](CC(C)C)C(=O)N[C@@H](CCCNC(=N)N)C(=O)N[C@@H](Cc1c[nH]cn1)C(=O)N[C@@H](Cc1cc(F)c(F)c(F)c1)C(=O)N[C@@H](CC(C)C)C(=O)N[C@@H](CC(N)=O)C(=O)N[C@@H](CC(C)C)C(=O)N[C@H](C(=O)N[C@H](C(=O)N[C@@H](CCCNC(=N)N)C(=O)N[C@@H](CCC(N)=O)C(=O)N[C@@H](CCCNC(=N)N)C(=O)N[C@@H](Cc1ccc(O)cc1)C(N)=O)[C@@H](C)O)C(C)C) [Ac-[(3,4,5-F)Phe^27]hPYY(22-36)NH2]	–	–	< 2000 nM	< 1000 nM
